Data set [1] deals with amyloid-β in whole brain lysates of Tg2576 mice (human). Briefly: non-reducing Tris-Tricine SDS-PAGE with Western blot (SDS-stable bands); whole brain lysates of Tg2576 mice prepared with or without 100 μM TPEN; blots with anti-Aβ (6E10) or anti-apoE; no dithiothreitol or β-mercaptoethanol.
Data set [2] deals with the molecule itself. Described as above.

Where “and” joins values, the source holds several entries; their conditions need not be identical. Identical values can stand only once.

With “amyloid-β in whole brain lysates of Tg2576 mice (peptide)”, the stoichiometry N in data set [1] was 4 and 3.

B1: apolipoprotein E in whole brain lysates of Tg2576 mice (natural protein, mouse (endogenous in Tg2576 mouse brain), UniProt P08226 19-311, looked up)
chain: EGEPEVTDQLEWQSNQPWEQALNRFWDYLRWVQTLSDQVQEELQSSQVTQELTALMEDTMTEVKAYKKELEEQLGPVAEETRARLGKEVQAAQARLGADMEDLRNRLGQYRNEVHTMLGQSTEEIRARLSTHLRKMRKRLMRDAEDLQKRLAVYKAGAREGAERGVSAIRERLGPLVEQGRQRTANLGAGAAQPLRDRAQAFGDRIRGRLEEVGNQARDRLEEVREHMEEVRSKMEEQTQQIRLQAEIFQARLKGWFEPIVEDMHRQWANLMEKIQASVATNPIITPVAQENQ
notes: Apolipoprotein E endogenous in mouse brain; also called apoE; apoE monomers; source: endogenous, Tg2576 mouse brain lysate
Take B1: in data set [2], the “stoichiometry N” value was found to be 2.

For the origin of these results see paper PMC7037199 (International Journal of Molecular Sciences, 2020).
